Here are results for two molecules from patent publication CN113372440A (SUN YAT SEN UNIV CANCER CENTER SUN YAT SEN UNIV AFFILIATED …, dated 2021).

Read-outs that look alike come from different tables or passages of the source.

The target of test [1] is T1, gLgH蛋白 (recombinant single-chain EBV M81 gL ectodomain - linker - gH ectodomain - 6xHis) (Epstein-Barr virus (M81 strain, …)).
T1 construct: also called gHgL蛋白; gLgH protein
The experiment in a line: ELISA, gLgH coated at 2 μg/mL, antibody titrated from 1 μg/mL, HRP goat anti-mouse IgG (Fig. 1). In general terms: An ELISA detects its analyte on a solid surface through an enzyme-linked reagent.

For test [2], the target named is gH/gL glycoprotein on EBV virions produced by AKATA cells (Epstein-Barr virus, UniProt P03231 19-706; P03212 23-137). Nature of the test: cell-based or functional assay.
Test [3] deals with T1, gLgH蛋白 (recombinant single-chain EBV …).
Test [4] shares this target. Nature of the test: SPR by the method of Example 4 (Biacore 8K, Protein A capture, gLgH as analyte) (Fig. 9). A general note: In SPR one partner is held on a chip, and binding of the other changes the refractive index at the surface.
The target is the same in test [5]. The experiment in a line: ELISA by the method of Example 1 step 5, gLgH coated (Fig. 8).

B1: 单克隆抗体6H2 (anti-EBV gLgH mouse monoclonal antibody 6H2) (antibody, V domains shown)
VH: EVKLLESGGGLVQPGGSLKLSCAASGFDFSRYWMTWVRQAPGQGLEWIGEINPDSSTINYTPSLKDKFIISRDNAKNTLYLQVSKLRSEDTALYYCARSPYYYGSSYDVWGAGTAVTVSS
VL: DIVMSQSPSSLAVSAGEKVTMNCKSSQSLLNSRTRKNYLAWYQQKPGQSPKLLIYWASTRESGVPDRFTGSGSGTDFTLTISSVQAEDLAFYYCKQSYNLPTFGGGTKLEIK
notes: also called 单抗6H2; 中和抗体6H2
One may read the EC50 as the concentration needed to bring the measured effect to its halfway point. Broadly, the Kd is the free concentration of one partner at which half of the binding sites on the other are occupied at equilibrium, for simple one-to-one binding. For the molecule B1, the EC50 in test [1] was found to be 0.0134 µg/mL. Also, the “IC50 in the epithelial cell infection model (HNE1 cells, GFP-EBV, inhibition of GFP-positive cells)” value in test [2] worked out at 0.108 µg/mL. In addition, in test [3], the Kd came to 2.8 nM.

B2: 嵌合单抗C6H2 (mouse 6H2 variable regions on human IgG1/kappa constant regions) (antibody, V domains shown)
VH: EVKLLESGGGLVQPGGSLKLSCAASGFDFSRYWMTWVRQAPGQGLEWIGEINPDSSTINYTPSLKDKFIISRDNAKNTLYLQVSKLRSEDTALYYCARSPYYYGSSYDVWGAGTAVTVSS
VL: DIVMSQSPSSLAVSAGEKVTMNCKSSQSLLNSRTRKNYLAWYQQKPGQSPKLLIYWASTRESGVPDRFTGSGSGTDFTLTISSVQAEDLAFYYCKQSYNLPTFGGGTKLEIKR
notes: also called 嵌合抗体C6H2
Take B2: in test [4], the Kd came to 11.5 nM. In addition, the EC50 in test [5] was determined as 0.0266 µg/mL.
